Experimental data from patent US20120165265A1, “Calcium Signaling Modulators Involving STIM and ORAI Proteins” (priority 2009, published 2012).

Assays:
[1] = molecular target: T1, Orai1-ΔN, Orai1-ΔC, Orai1-ΔN73 (Homo sapiens, UniProt Q96D31); test: Whole-cell recording of ICRAC with truncated Orai1 and CAD; format: cell-based; conditions: cells expressing Orai1-ΔN73
T1 construct: expressed in transfected cells; host or cells: HEK 293
Experimental: Electrophysiology. HEK 293 cells were transfected 8-24 h prior to electrophysiology experiments with STIM1- and Orai1-derived constructs in a 1:1 mass ratio using Lipofectamine 2000. […] ICRAC in cells cultured without LaCl3 was similar to that in cells cultured with LaCl3, but most cells without LaCl3 died soon after break-in.
Currents were recorded using standard whole-cell patch clamp techniques (Prakriya and Lewis, 2001). Pipettes of resistance 2-5 MΩ were filled with an internal solution containing (in mM) 150 Cs aspartate, 8 MgCl2, 10 EGTA, and 10 HEPES (pH 7.2 with CsOH). Currents were sampled at 5 kHz and filtered at 2 kHz, and all voltages were corrected for the junction potential of the pipette solution relative to Ringer's in the bath (−13 mV).
Patch-clamp Experiments. Pipette-membrane seals were formed in 2 mM Ca^2+ Ringer's solution. After break-in to the whole-cell configuration, voltage stimuli consisting of a 100-ms step to −100 mV followed by a 100-ms ramp from −100 to +100 mV were delivered every 5 s from the holding potential of +30 mV. After the currents reached a steady level (˜300 s for wild-type STIM1), the external solution was changed via a multibarrel local perfusion pipette to a high-Ca^2+ Ringer's containing (in mM) 130 NaCl, 4.5 KCl, 20 CaCl2, 1 MgCl2, 10 D-glucose, and 5 HEPES (pH 7.4 with NaOH). […]

GFP-Orai1 = molecular target: T2, GFP-Orai1 (Homo sapiens, UniProt Q96D31); test: Fluorescence recovery after photobleaching (FRAP) of GFP-Orai1; format: cell-based
T2 construct: expressed in transfected cells
T2 sequence (Q96D31 whole entry): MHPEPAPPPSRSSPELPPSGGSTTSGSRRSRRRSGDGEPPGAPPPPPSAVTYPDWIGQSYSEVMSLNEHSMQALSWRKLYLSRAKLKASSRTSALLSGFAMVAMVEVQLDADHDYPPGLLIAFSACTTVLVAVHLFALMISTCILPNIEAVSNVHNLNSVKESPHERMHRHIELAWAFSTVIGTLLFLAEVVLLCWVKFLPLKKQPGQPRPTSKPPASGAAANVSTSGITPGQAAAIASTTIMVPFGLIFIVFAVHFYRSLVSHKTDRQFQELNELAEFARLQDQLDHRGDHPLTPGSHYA
Experimental: Fluorescence Recovery After Photobleaching (FRAP). Inducible HEK 293 cells were transiently transfected with mCh-CAD and maintained with 10 μM LaCl3 to suppress chronic Ca2+ entry. After 15-16 h, eGFP-myc-Orai1 expression was induced with 1 μg/ml tetracycline in medium containing LaCl3. Cells were rinsed with 2 mM Ca2+ Ringer's solution at 24 h post-transfection prior to imaging on the confocal system described above. Prebleach and recovery images were scanned at 488 nm at low power (20 mW Ar laser, 50% power, 6% transmission). A 3-μm strip was bleached at 50% laser power with full transmission for ˜2 s. Bleaching during the recovery period was negligible (<5%). FRAP recovery curves were analyzed with ImageJ (W. S. Rasband, NIH, Bethesda, Md., following a published method in which an empirical formula approximating the one-dimensional solution of the diffusion equation is fitted to the time course of fluorescence recovery within the bleached ROI. An offset was introduced to account for incomplete bleaching. The
where I(t) is the mean intensity within the bleached region at time t, Ib is the intensity immediately after bleaching, If is the intensity after full recovery, w is the width of the bleached region, and D is the effective diffusion coefficient, was fit to the FRAP recovery curves with Igor Pro 5.0 (Wavemetrics) to determine D. Mobility was determined as (If−Ib)/(I0−Ib), where If and Ib are defined as above, and I0 is the initial intensity within the ROI after correction for the loss of whole-cell fluorescence by the bleaching pulse (˜10%).
To test whether CAD also clusters CRAC channels in intact cells, we conducted fluorescence recovery after photobleaching (FRAP) experiments of GFP-Orai1 expressed alone or with CAD in HEK 293 cells. […] In cells co-expressing GFP-Orai1 and CAD, the mobile fraction was unchanged (87±4%) but Orai1 diffusion was slowed by a factor of two (D=0.036±0.006 μm^2/s, n=6).

Orai1 = Orai1 (Homo sapiens, UniProt Q96D31); test: Co-immunoprecipitation with Orai1 in HEK 293T cells; format: binding; parameters: expressed in transfected cells; host or cells: HEK 293; conditions: 150 mM salt, 1% Triton X-100
Orai1, sequence (Q96D31 whole entry): as above
Experimental: Immunoprecipitation and Immunoblot Analysis. Transfected HEK 293T cells (12-24 h) were washed with PBS and lysed in 50 mM Tris-HCl pH 7.5, 150 mM NaCl, 1% Triton X-100, and protease inhibitors. Lysates were spun at 12,000 rpm for 10 min, and the supernatant was incubated with anti-Flag M2 agarose beads (Sigma), or anti-myc or -HA antibody followed by IgG agarose beads (Pierce). Lysates and immunoprecipitates were subjected to SDS-PAGE, probed with HRP-conjugated secondary antibody and detected by enhanced chemiluminescence (Pierce).
CAD Associates with Orai1 in vivo and in vitro. Because cytosolic CAD is a potent activator of Orai1 channels and is not associated with the ER, we hypothesized that CAD binds to Orai1. To test this idea, we first expressed YFP-CAD with or without myc-Orai1 in HEK 293 cells and examined its intracellular localization. […] To provide additional evidence that CAD and Orai1 are part of the same protein complex we expressed Flag-tagged CAD and GFP-tagged Orai1 in HEK 293T cells and immunoprecipitated CAD with anti-Flag antibodies. GFP-myc-Orai1 was detected in the immunoprecipitates from cells co-expressing CAD and Orai1 but not from cells expressing CAD or Orai1 alone (FIG. 3B).
Thus, CAD and Orai1 form a protein complex in mammalian cells.

T1 sequence (Q96D31 74-301): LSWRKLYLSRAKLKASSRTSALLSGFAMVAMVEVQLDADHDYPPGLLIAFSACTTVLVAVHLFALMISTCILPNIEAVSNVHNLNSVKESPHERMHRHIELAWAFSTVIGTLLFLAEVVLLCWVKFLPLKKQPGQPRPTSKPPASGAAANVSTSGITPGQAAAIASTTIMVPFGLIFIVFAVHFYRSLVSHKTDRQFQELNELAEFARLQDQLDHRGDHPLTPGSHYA

“CAD: 107-residue CRAC activation domain within the C-terminus of STIM1 (aa 342-448), SEQ ID NO:1” was tested, and the “constitutive ICRAC activation” value [1] was “constitutively activated ICRAC”, the “mobile fraction of GFP-Orai1” value (GFP-Orai1; HEK 293 cells co-expressing GFP-Orai1 and CAD) was 87±4% and the “effective diffusion coefficient (D) of GFP-Orai1, mean” value (GFP-Orai1; HEK 293 cells co-expressing GFP-Orai1 and CAD, n=6) was 0.036±0.006 μm^2/s. The “diffusion coefficient of eGFP-Orai1, single-cell fit” value (GFP-Orai1; single cell expressing eGFP-Orai1 with CAD (FIG. 6D)) was 0.026 μm^2/s and the “co-immunoprecipitation with Orai1” value (Orai1) was “co-immunoprecipitates with Orai1”.
